Measured values published in patent US20220348661A1 (HARBOUR BIOMED SHANGHAI, published 2022).

Molecular target: T1, human CD3 (human, UniProt P07766 23-207; P09693 23-182; P04234 22-171; P20963 22-164)
T1 construct: whole, on cells; SP34 is described as an anti-human CD3e antibody; also called human TCR/CD3 complex; CD3 on human pan-T cells
Assay: flow cytometry on human pan-T cells

T1 sequence (P07766 23-207, chain 1 of 4): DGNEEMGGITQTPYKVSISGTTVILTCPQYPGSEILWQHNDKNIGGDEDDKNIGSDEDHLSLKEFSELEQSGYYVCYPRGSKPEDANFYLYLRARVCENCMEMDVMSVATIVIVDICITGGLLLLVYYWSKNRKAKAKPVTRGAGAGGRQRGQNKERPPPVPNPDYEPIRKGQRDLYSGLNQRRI
T1 sequence (P09693 23-182, chain 2 of 4): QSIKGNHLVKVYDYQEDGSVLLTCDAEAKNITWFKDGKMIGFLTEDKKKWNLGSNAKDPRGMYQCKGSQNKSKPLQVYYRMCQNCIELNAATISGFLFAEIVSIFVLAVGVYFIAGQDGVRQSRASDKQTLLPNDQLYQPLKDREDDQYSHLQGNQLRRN
T1 sequence (P04234 22-171, chain 3 of 4): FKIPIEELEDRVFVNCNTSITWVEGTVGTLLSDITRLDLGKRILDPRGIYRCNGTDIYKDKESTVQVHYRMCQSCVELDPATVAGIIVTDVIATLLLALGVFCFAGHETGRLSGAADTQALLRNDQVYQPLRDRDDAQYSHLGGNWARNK
T1 sequence (P20963 22-164, chain 4 of 4): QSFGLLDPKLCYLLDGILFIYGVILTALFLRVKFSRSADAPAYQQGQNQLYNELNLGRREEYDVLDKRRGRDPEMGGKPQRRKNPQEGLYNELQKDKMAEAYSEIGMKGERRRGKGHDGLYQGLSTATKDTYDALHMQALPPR

B1: bispecific antibody PR002883 targeting B7H4xCD3 (bispecific antibody)
heavy 1: QAVVTQEPSLTVSPGGTVTLTCRSSTGAVTTSNYANWVQQKPGQAPRGLIGGTNKRAPWTPARFSGSLLGDKAALTLLGAQPEDEAEYFCALWYSNLWVFGGGTKLTVLGGGQSGQGGSGGGGSEVQLVESGGGLVQPGGSLKLSCAASGFTFNTYAMNWVRQASGKGLEWVGRIRSKYNNYATYYADSVKDRFTISRDDSKSTLYLQMNSLKTEDTAVYYCVRHGNFGNSYVSWFAYWGQGTLVTVSSASEPKSSDKTHTCPPCPAPEAAGGPSVFLFPPKPKDTLMISRTPEVTCVVVDVSHEDPEVKFNWYVDGVEVHNAKTKPREEQYNSTYRVVSVLTVLHQDWLNGKEYKCKVSNKALGAPIEKTISKAKGQPREPQVYTLPPCREEMTKNQVSLWCLVKGFYPSDIAVEWESNGQPENNYKTTPPVLDSDGSFFLYSKLTVDKSRWQQGNVFSCSVMHEALHNHYTQKSLSLSPGK
heavy 2: EVQLVQSGAEVKKPGASVKVSCKASGYTFTSYWIGWVRQAPGQGLEWIGDIYPGGGYTNYNEKFKGRVTITRDTSTSTAYLELSSLRSEDTAVYYCARLAGSSYRGAMDSWGQGTLVTVSSASTKGPSVFPLAPSSKSTSGGTAALGCLVKDYFPEPVTVSWNSGALTSGVHTFPAVLQSSGLYSLSSVVTVPSSSLGTQTYICNVNHKPSNTKVDKKVEPKSCDKTHTCPPCPAPEAAGGPSVFLFPPKPKDTLMISRTPEVTCVVVDVSHEDPEVKFNWYVDGVEVHNAKTKPREEQYNSTYRVVSVLTVLHQDWLNGKEYKCKVSNKALGAPIEKTISKAKGQPREPQVCTLPPSREEMTKNQVSLSCAVKGFYPSDIAVEWESNGQPENNYKTTPPVLDSDGSFFLVSKLTVDKSRWQQGNVFSCSVMHEALHNHYTQKSLSLSPGK
light: DIQMTQSPSSLSASVGDRVTITCKASQGFNKYVAWYQQKPGKAPKLLIYYTSTLQPGVPSRFSGSGSGRDYTLTISSLQPEDFATYYCLQYGDLLYAFGQGTKVEIKRTVAAPSVFIFPPSDEQLKSGTASVVCLLNNFYPREAKVQWKVDNALQSGNSQESVTEQDSKDSTYSLSSTLTLSKADYEKHKVYACEVTHQGLSSPVTKSFNRGEC
notes: asymmetric three-chain structure, LALAPG; SDS-PAGE purity 70% after one-step purification; also called B7H4×CD3 bispecific antibody
B1: binds.

B2: bispecific antibody PR002885 targeting ROR1xCD3 (bispecific antibody, human IgG1, kappa, L234A L235A)
heavy 1: B1 heavy 1
heavy 2: EVQLVESGGGLVQPGRSLRLSCTASGSDINDYPITWVRQAPGQGLEWIGFINSGGSTWYASWVKGRFTISRDDSKSIAYLQMNSLKTEDTAVYYCARGYSTYYRDFNIWGQGTLVTVSSASTKGPSVFPLAPSSKSTSGGTAALGCLVKDYFPEPVTVSWNSGALTSGVHTFPAVLQSSGLYSLSSVVTVPSSSLGTQTYICNVNHKPSNTKVDKKVEPKSCDKTHTCPPCPAPEAAGGPSVFLFPPKPKDTLMISRTPEVTCVVVDVSHEDPEVKFNWYVDGVEVHNAKTKPREEQYNSTYRVVSVLTVLHQDWLNGKEYKCKVSNKALGAPIEKTISKAKGQPREPQVCTLPPSREEMTKNQVSLSCAVKGFYPSDIAVEWESNGQPENNYKTTPPVLDSDGSFFLVSKLTVDKSRWQQGNVFSCSVMHEALHNHYTQKSLSLSPGK
light: DIQMTQSPSSLSASVGDRVTINCQASQSIDSNLAWFQQKPGQPPKLLIYRASNLASGVPDRFSGSGSGTDFTLTISSLEAEDVATYYCLGGVGAVSYRTSFGGGTKVEIKRTVAAPSVFIFPPSDEQLKSGTASVVCLLNNFYPREAKVQWKVDNALQSGNSQESVTEQDSKDSTYSLSSTLTLSKADYEKHKVYACEVTHQGLSSPVTKSFNRGEC
notes: asymmetric three-chain structure, LALAPG; SDS-PAGE purity 70% after one-step purification; also called ROR1×CD3 bispecific antibody
B2: binds.
